Measured values reported in article doi:10.64898/2025.12.19.695307 (bioRxiv, 2025).
Changes are numbered by the printed parent chain.

B1: ZL525 (antibody, V domains shown)
V domain 1: QVQLVQSGAEVKKPGSSMKVSCQASGGTFSSHPISWIRQAPGQGLEWMGRIIPIAGMTDYGQKFQGRITITADTSTSTSYVELRGLRSQDTAFYYCAKDVGYSDYGSAYYFHTWGQGTLITVSS
V domain 2: QSVLTQPPSVSGAPGQRVTISCTGSNSNIGAGYDVHWYQQLPGTAPKLLIYRNNKRPSGVPDRFSGSKSDTSASLAITGLQAEDEAHYYCQSFDSSLGGSLFGGGTKLAVL
B2: C092 (antibody, V domains shown)
VH: QVQLVQSGAEVKKPGSSVKVSCKASGGSFTNHFISWVRQAPGQGLEWMGRIIPILGTANYAQNFQGRVMMTADKSTSTAYMELSSLRSEDTAVYYCARDSGYSGYGSTYYMDVWGKGTTVTVSS
VL: QSVLTQPPSVSGAPGQRVTISCTGSNSNIGAGYDVHWYQQLPGAAPKLLIYGNNNRPSGVPDRFSGSKSDTSASLAITGLQVEDEADYYCQSYDSSLSDSVFGSGTKVTVL
B3: R1-32-AAM (R1-32-artificial-affinity-matured) (antibody, V domains shown)
VH: EVQLVESGAEVKKPGSSVKVSCKASGGTFSSYFISWVRQAPGQGLEWMGGIIPILGIADYAEKFQGRVTITADKSTSTAYMELSSLRSEDTAVYYCARENGYSGYGAAYNFDLWGRGTLVTVSS
VL: B2 VL with N26D, A44T, N54S, V82A, S104G, V108L
B4: R1-32 (antibody, V domains shown)
VH: B3 VH with F33A, D59N, E62Q, Y109A
VL: B2 VL with N26S, A44T, N54S, D70G, V82A, D99G, S104G, V108L
B5: BD56-597 (antibody, V domains shown)
VH: QVQLVQSGAEVKKPGSSVKVSCKASGGTFSTYPISWVRQAPGQGVEWMGAIIPILGTTDYAQIFQGRVTITADKSTSTAYMELSSLRPEDTAVYYCARERGYSGYGAAYYFDSWGQGTLVTVSS
VL: B2 VL with N26D, A44T, G52V, N54I, D70A, V82A, D99G, S100V, S104G, V108L
B6: C807 (antibody, V domains shown)
VH: QVQLVQSGAEAKKPGSSVKVSCKASGGTFKSYIINWVRQAPGQGLEWMGEIIPIFGTANYAQKFQGRVTSTADESTSTAYMELSSLKSEDTAVYYCARGRGYSGYGASYYFDYWGQGTLVTVSS
VL: B2 VL with A44T, G52A, N54S, D70G, V82A, S96G, D99G, S104G, V108L
B7: BD56-104-R1-32 HCDR3 (antibody, V domains shown)
VH: QVQLVQSGAEVKTPGSSVKVSCKASGGTFGSHSITWVRQAPGQGLEWMGRVIPILGIPDFAESFQGRVAITADRSTSTAHMELSRLRSEDTAVYYCARENGYSGYGAAANFDLWGQGTLVTVSS
VL: QSVLTQPPSVSGAPGQRVTISCTGSNSNIGAGYDVHWYRQLPGTAPKLLIYVNNNRPSGVPDRFSGSRSGASASLAITGLQAEDEAEYYCQSYDSSLSGSIFGGGTKLTVL
B8: BD56-104 (antibody, V domains shown)
VH: B7 VH with E99D, N100V, Y105S, A107S, A108S, A109N, N110Y, L113S
VL: B7 VL

target: SARS-CoV-1 RBD (SARS-CoV-1, strain not named, UniProt P59594); assay: BLI

Row | Binder | binding result
1 | B1 | binds

target: SARS-CoV-2 wild-type RBD (SARS-CoV-2, UniProt P0DTC2); assay: BLI

Row | Binder | binding result
2 | B2 | binds
3 | B3 | binds
4 | B4 | binds
5 | B5 | binds
6 | B6 | binds
7 | B7 | binds
8 | B8 | binds
9 | B1 | binds

target: Bat-WIV1 RBD (Bat SARS-like coronavirus WIV1, UniProt U5WI05); assay: BLI

Row | Binder | binding result
10 | B2 | binds
11 | B5 | binds
12 | B6 | binds
13 | B8 | no binding (tested: 200 nM RBD)
14 | B1 | binds

target: Bat-RaTG13 RBD (Bat coronavirus RaTG13, UniProt A0ABF7PLN6); assay: BLI

Row | Binder | binding result
15 | B2 | binds
16 | B4 | binds
17 | B5 | binds
18 | B6 | binds
19 | B8 | binds
20 | B1 | binds

target: GX2013 RBD (SARSr-CoV BtRs-BetaCoV/GX2013); assay: BLI

Row | Binder | binding result
21 | B2 | binds
22 | B5 | binds
23 | B6 | binds
24 | B8 | binds
25 | B1 | binds

target: HeB2013 RBD (SARSr-CoV BtRf-BetaCoV/HeB2013); assay: BLI

Row | Binder | binding result
26 | B2 | binds
27 | B5 | binds
28 | B6 | binds
29 | B8 | binds
30 | B1 | binds

target: Bat-RsSHC014 RBD (Bat SARS-like coronavirus RsSHC014, UniProt U5WLK5); assay: BLI

Row | Binder | binding result
31 | B2 | binds
32 | B4 | binds
33 | B5 | binds
34 | B6 | binds
35 | B8 | binds
36 | B1 | binds
